# Measurements as given in publication PMC3701619, “High Levels of DegU-P Activate an Esat-6-Like Secretion System in Bacillus subtilis” (PLoS ONE, 2013).
# B1: YukE-His6 (natural protein, B. subtilis, UniProt C0SP85 1-97, looked up)
# chain: MAGLIRVTPEELRAMAKQYGVESQEVLNQVDRLNRMISDLKSMWEGASSEAFADQYEQLKPSFIKMSDLLQDVNQQLDQTANTLESTDQDIANQIRG
# notes: YukE, WXG100 protein of Bacillus subtilis; YukE-His6 is 12.17 kDa; The vector may add linker residues between YukE and the His6 tag; The vector is named pIVEX3.2d once and pIVEX2.3d once; also called recombinant YukE; YukE C-terminally tagged with a hexahistidine tail; not shown: His6, C-terminal, kept
# B2: native YukE (natural protein, UniProt C0SP85 1-97, looked up)
# chain: B1 chain
# notes: YukE, WXG100 protein of Bacillus subtilis, as secreted to the culture medium; predicted mass of the native dimer ~22 kDa; the protein here is from an ATCC 6051 derivative; also called YukE present in a concentrated culture supernatant of strain W654
# Legend:
# [1] = target: the molecule itself; assay: cross-linking; pure YukE-His6 (0.4 to 10.3 uM with 0.25 mM BS3; 20 to 84 uM with 1 mM BS3) in YukE buffer (50 mM HEPES-Na pH 7.0, 300 mM NaCl), 30 min at room temperature; 15% SDS-PAGE, Coomassie staining or Western blot with anti-YukE-His6
# [2] = target: the molecule itself; assay: cross-linking; concentrated, dialysed (25 mM HEPES pH 7, 250 mM NaCl) cell-free supernatant of a W654 culture at T2, 2.5 ug total protein, 1 mM or 5 mM BS3, 30 min at room temperature; Western blot with anti-YukE-His6
protein,measurement,setting,value
B1,stoichiometry N,[1],2
B2,stoichiometry N,[2],2
